Laboratory results from publication doi:10.1101/2024.08.23.608024.

T1: GbpC (glucan-binding protein C), extracellular fragment (Streptococcus mutans, UniProt Q8DTF1 111-522)
T1 sequence: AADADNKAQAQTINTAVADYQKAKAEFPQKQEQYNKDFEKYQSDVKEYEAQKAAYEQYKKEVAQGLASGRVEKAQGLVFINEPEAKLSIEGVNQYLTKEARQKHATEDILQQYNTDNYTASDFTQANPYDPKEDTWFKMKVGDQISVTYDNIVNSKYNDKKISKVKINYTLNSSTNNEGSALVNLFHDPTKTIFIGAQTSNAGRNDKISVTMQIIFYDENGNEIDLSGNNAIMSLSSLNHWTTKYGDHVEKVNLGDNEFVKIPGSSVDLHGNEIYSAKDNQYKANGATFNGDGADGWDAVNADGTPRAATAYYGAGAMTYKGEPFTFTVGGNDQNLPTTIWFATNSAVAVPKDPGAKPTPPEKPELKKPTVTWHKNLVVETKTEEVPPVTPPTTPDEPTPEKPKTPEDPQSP

B1: A30 (ssDNA)
DNA: AGATACCAATACGCTGCCTTCTTGAAAAAGGGTAGCGCAGGCCGCTAATGACATAACTGCCACTGGTAACGACATC
B2: A96 (flanked) (ssDNA)
DNA: AGATACCAATACGCTGCCCCGCCGGTCCCGAGCTACAACACTTTACGCCCCCCTCCCCGCCACTGGTAACGACATC
B3: A39 (flanked) (ssDNA)
DNA: AGATACCAATACGCTGCCTAGCCCCTACCCTGTTGCTCCCCCTCGCCCCTCTCACCCCGCCACTGGTAACGACATC
B4: A65 (ssDNA)
DNA: AGATACCAATACGCTGCCTTTCCAATTACGCCATGCATCACCCCTAAAATCTGAATACGCCACTGGTAACGACATC

Experiments:
[1] = biological target: T1, GbpC (glucan-binding protein C), …; experiment: MST
[2] = biological target: T1, GbpC (glucan-binding protein C), …; experiment: AlphaScreen
[3] = biological target: T1, GbpC (glucan-binding protein C), …; experiment: BLI

Row | Binder | Kd [1] | binding result [2] | Kd [3]
1 | TAGCCCCTACCCTGTTGCTCCCCCTCGCCCCTCTCACCCC (ssDNA) [A39 truncated] | 19.6 µM | – | –
2 | B1 | – | binds | –
3 | B2 | 8.5 µM | – | 0.4 µM
4 | CCGCCGGTCCCGAGCTACAACACTTTACGCCCCCCTCCC (ssDNA) [A96 truncated] | 66.9 µM | – | –
5 | B3 | – | – | 5.7 µM
6 | B4 | – | binds | –
